Results published in paper PMC4915018, “Brain phosphorylation of MeCP2 at serine 164 is developmentally regulated and globally alters its chromatin association”.

Molecular target: MeCP2(74-172) WT (human, UniProt P51608 74-172)
Test: EMSA; subtly but consistently higher affinity for mCG; 10 mM Tris-HCl (pH not given), 50 mM KCl, 0.5 mM MgCl2, 0.1 mM EDTA, 5% glycerol, 0.1 mg/ml BSA, RT 30 min; 0-500 ng protein, 200 ng probe; 6% acrylamide, 1X TAE, ethidium bromide
Details: protein: recombinant; blunt

MeCP2(74-172) WT, sequence (P51608 74-172): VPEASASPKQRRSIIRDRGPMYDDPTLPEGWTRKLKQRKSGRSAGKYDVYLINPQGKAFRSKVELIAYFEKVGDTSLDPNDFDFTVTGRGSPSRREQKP

B1: CpG methylated probe (dsDNA)
DNA 1: CTAAAGGAAAAGTGACGCACTGTTTTACACCTTGGTTTT
DNA 2: AAAACCAAGGTGTAAAACAGTGCGTCACTTTTCCTTTAG
modifications: symmetric methyl-C at the only CpG (C16 of S1, C23 of S2; position inferred, bold marks lost)
B1: binds.
